In article PMC9190123 (Molecular pharmaceutics, 2009):
Like-named read-outs stand apart in the source and are kept apart here. Numbered stars: 1 amine (or outer) side, 2 acyl side, 3 side chain; on linkers, the order of the positions; unused ones are H or OH. Square brackets hold non-standard residues; d marks the D form. Side chains are listed from the residue outwards. Peptide text beside a SMILES is read from it. * marks the point of attachment. X1 = N[C@@H](CN*)C(=O)N[C@@H](CC(=O)O)C(=O)N[C@@H](CS)C(=O)O; γGlu = O=C(O)[C@H](CCC(=O)[*:2])N[*:1]; PEG6 = NCCOCCOCCOCCOCCOCCOCCC(=O)O; Dap = NC[C@H](N)C(=O)O; Aoc = NCCCCCCCC(=O)O; CO = O=C([*:1])[*:2]

Columns and labels:
[1] = target: PSMA (PSMA-expressing LNCaP cells) (Homo sapiens, UniProt Q04609); assay: LNCaP cell binding study; conditions: for affinity for PSMA / LNCaP cells (in words): LNCaP cells in culture; for competitive inhibition of binding by excess PMPA: LNCaP cells, 100-fold excess PMPA; for Kd: PSMA-positive LNCaP cells in culture, 1 h at 37 °C
Chain of PSMA (PSMA-expressing LNCaP cells) (Q04609 whole entry): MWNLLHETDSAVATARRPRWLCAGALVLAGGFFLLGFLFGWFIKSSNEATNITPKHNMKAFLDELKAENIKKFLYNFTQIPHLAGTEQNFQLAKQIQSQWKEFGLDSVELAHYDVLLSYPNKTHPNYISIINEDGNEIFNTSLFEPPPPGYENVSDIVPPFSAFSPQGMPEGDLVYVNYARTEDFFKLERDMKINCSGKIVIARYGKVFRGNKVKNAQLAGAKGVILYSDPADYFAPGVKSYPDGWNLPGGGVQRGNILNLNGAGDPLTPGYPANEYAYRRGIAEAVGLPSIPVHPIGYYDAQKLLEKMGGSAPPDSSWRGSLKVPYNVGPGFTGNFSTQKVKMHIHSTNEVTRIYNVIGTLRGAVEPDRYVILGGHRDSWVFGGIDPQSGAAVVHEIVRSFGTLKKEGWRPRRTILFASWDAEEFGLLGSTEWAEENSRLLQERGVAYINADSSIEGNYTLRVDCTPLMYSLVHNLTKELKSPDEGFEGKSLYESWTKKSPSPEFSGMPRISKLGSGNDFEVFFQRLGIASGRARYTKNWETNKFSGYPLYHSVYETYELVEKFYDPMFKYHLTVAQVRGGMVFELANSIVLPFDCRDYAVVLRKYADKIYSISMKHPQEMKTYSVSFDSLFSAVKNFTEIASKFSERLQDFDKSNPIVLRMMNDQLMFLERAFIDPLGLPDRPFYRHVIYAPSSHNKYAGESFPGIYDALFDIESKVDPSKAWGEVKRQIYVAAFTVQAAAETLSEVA

[2] = type: in vivo, athymic nu/nu mice; conditions: mouse, ip
LNCaP tumor xenografts = type: in vivo, athymic nu/nu mice; conditions: for tumor-specific accumulation by whole-body radioimaging: 4 h after ip injection; for Tumor:Tissue blood / Tumor:Tissue heart / Tumor:Tissue liver / Tumor:Tissue lung / Tumor:Tissue muscle / Tumor:Tissue skin / Tumor:Tissue spleen: mouse, in vivo, ip; for accumulation in PSMA-positive tumors by γ-counting (in words): tissue biodistribution, 4 h
[3] = system: PSMA-negative human tumor xenografts; conditions: two PSMA-negative human tumor xenografts; cited from earlier work
[4] = male, athymic nu/nu, in vivo, 67 nmol, total radioactivity, tumor uptake, average % ID/g tissue

Row | Compound | internalization by LNCaP cells ([1]; 1 h at 4 °C vs 37 °C) | affinity for PSMA / LNCaP cells (in words) [1] | competitive inhibition of binding by excess PMPA [1] | Kd [1] [nM] | tissue uptake at 4 h [2, 4] [%ID/g] | tissue uptake at 4 h ([2]; kidney, 67 nmol, % ID/g kidney, kidney, 4 h after ip injection) [%ID/g] | tumor-specific accumulation by whole-body radioimaging (LNCaP tumor xenografts; radioimaging) | LNCaP tumor uptake with coinjection of excess PMPA (LNCaP tumor xenografts; competition with 100-fold excess PMPA, radioimaging) | Tumor:Tissue blood (LNCaP tumor xenografts) | Tumor:Tissue heart (LNCaP tumor xenografts) | Tumor:Tissue liver (LNCaP tumor xenografts) | Tumor:Tissue lung (LNCaP tumor xenografts) | Tumor:Tissue muscle (LNCaP tumor xenografts) | Tumor:Tissue skin (LNCaP tumor xenografts) | Tumor:Tissue spleen (LNCaP tumor xenografts) | uptake in PSMA-negative tumors [3] | tissue uptake at 4 h ([2]; in vivo, % ID/g kidney) [%ID/g] | accumulation in PSMA-positive tumors by γ-counting (in words) (LNCaP tumor xenografts)
1 | N[C@@H](CNC(=O)[C@H](Cc1ccccc1)NC(=O)[C@H](Cc1ccccc1)NC(=O)CCCCCCCNC(=O)CC[C@H](NC(=O)N[C@@H](CCC(=O)O)C(=O)O)C(=O)O)C(=O)N[C@@H](CC(=O)O)C(=O)N[C@@H](CS)C(=O)O [compound 5] (H-[Dap]([Phe-Phe-Aoc-γGlu-CO-Glu])-Asp-Cys-OH) | internalization of the DUPA conjugate at physiological temperature | most avid interaction | nearly quantitative competition | 13.8 ± 3.9 | 9.8 ± 2.4 | 37.8 | accumulated predominantly in the PSMA-positive LNCaP tumors | eliminated LNCaP tumor uptake | 36.4 | 80.9 | 20.2 | 35.2 | 78.9 | 30.7 | 18.4 | no uptake |  | 
2 | N[C@@H](CNC(=O)[C@H](Cc1ccccc1)NC(=O)[C@H](Cc1ccccc1)NC(=O)CNC(=O)[C@H](CCC(=O)O)NC(=O)[C@H](Cc1ccccc1)NC(=O)CC[C@H](NC(=O)N[C@@H](CCC(=O)O)C(=O)O)C(=O)O)C(=O)N[C@@H](CC(=O)O)C(=O)N[C@@H](CS)C(=O)O [compound 7] ({Glu-CO-γGlu}-FEGFF-X1) |  |  |  |  |  |  | accumulated predominantly in the PSMA-positive LNCaP tumors |  |  |  |  |  |  |  |  |  |  | 
3 | N[C@@H](CNC(=O)[C@H](CCC(=O)O)NC(=O)[C@H](Cc1ccccc1)NC(=O)CCCCCCCNC(=O)CC[C@H](NC(=O)N[C@@H](CCC(=O)O)C(=O)O)C(=O)O)C(=O)N[C@@H](CC(=O)O)C(=O)N[C@@H](CS)C(=O)O [compound 6] (H-[Dap]([Glu-Phe-Aoc-γGlu-CO-Glu])-Asp-Cys-OH) |  | somewhat lower affinities | nearly quantitative competition | 31 | 9.8 ± 2.4 |  | accumulated predominantly in the PSMA-positive LNCaP tumors |  | 51.4 | 93.3 | 11.6 | 18.9 | 74.2 | 28.7 | 4.5 |  | 42.9 | 
4 | N[C@@H](CNC(=O)[C@H](Cc1ccccc1)NC(=O)CCOCCOCCOCCOCCOCCOCCNC(=O)CC[C@H](NC(=O)N[C@@H](CCC(=O)O)C(=O)O)C(=O)O)C(=O)N[C@@H](CC(=O)O)C(=O)N[C@@H](CS)C(=O)O [compound 8] (H-[Dap]([Phe-PEG6-γGlu-CO-Glu])-Asp-Cys-OH) |  | weak affinity |  | 338 |  |  | not observed |  |  |  |  |  |  |  |  |  |  | did not accumulate
5 | N[C@@H](CNC(=O)CC[C@H](NC(=O)N[C@@H](CCC(=O)O)C(=O)O)C(=O)O)C(=O)N[C@@H](CC(=O)O)C(=O)N[C@@H](CS)C(=O)O [compound 3] (H-[Dap]([γGlu-CO-Glu])-Asp-Cys-OH) |  | weak affinity |  | 176 |  |  | not observed |  |  |  |  |  |  |  |  |  |  | did not accumulate
6 | N[C@@H](CNC(=O)[C@H](Cc1ccccc1)NC(=O)[C@H](CCC(=O)O)NC(=O)CC[C@H](NC(=O)N[C@@H](CCC(=O)O)C(=O)O)C(=O)O)C(=O)N[C@@H](CC(=O)O)C(=O)N[C@@H](CS)C(=O)O [compound 4] (H-[Dap]([Phe-Glu-γGlu-CO-Glu])-Asp-Cys-OH) |  | somewhat lower affinities | nearly quantitative competition | 60 | 9.8 ± 2.4 |  | accumulated predominantly in the PSMA-positive LNCaP tumors |  | 91.7 | 112.2 | 62.9 | 101.8 | 115.1 | 92.3 | 66.7 |  | 3.4 | 
